# Experimental data taken from PMC12949252.
# B1: OS9 (endogenous, HEK293T) (natural protein)
# chain: GGVGSLNLEELSEMRYGIEILPLPVMGGQSQSSDVVIVSSKYKQRYECRLPAGAIHFQREREEETPAYQGPGIPELLSPMRDAPCLLKTKDWWTYEFCYGRHIQQYHMEDSEIKGEVLYLGYYQSAFDWDDETAKASKQHRLKRYHSQTYGNGSKCDLNGRPREAEVRFLCDEGAGISGDYIDRVDEPLSCSYVLTIRTPRLCPHPLLRPPPSAAPQAILCHPSLQPEEYMAYVQRQADSKQYGDKIIEELQDLGPQVWSETKSGVAPQKMAGASPTKDDSKDSDFWKMLNEPEDQAPGGEEVPAEEQDPSPEAADSASGAPNDFQNNVQVKVIRSPADLIRFIEELKGGTKKGKPNIGQEQPVDDAAEVPQREPEKERGDPERQREMEEEEDEDEDEDEDEDERQLLGEFEKELEGILLPSDRDRLRSEVKAGMERELENIIQETEKELDPDGLKKESERDRAMLALTSTLNKLIKRLEEKQSPELVKKHKKKRVVPKKPPPSPQPTEEDPEHRVRVRVTKLRLGGPNQDLTVLEMKRENPQLKQIEGLVKELLEREGLTAAGKIEIKIVRPWAEGTEEGARWLTDEDTRNLKEIFFNILVPGAEEAQKERQRQKELESNYRRVWGSPGGEGTGDLDEFDF
# Columns and labels:
# SEL1L-S658P-FLAG (mouse) = test: co-IP
# SEL1L-G585D-FLAG (mouse) = test: co-IP
Molecule,percent reduction of binding against WT (SEL1L-S658P-FLAG (mouse)) [%],percent reduction of binding against WT (SEL1L-G585D-FLAG (mouse)) [%]
"HRD1 (endogenous, HEK293T) (from UniProt Q86TM6 1-617) (enzyme)",70,–
B1,–,90
